# Measurements as given in patent US20260274979A1 (Genmab, published 2026).
# Several values for one entry are separate records, joined by “and”; a condition that tells them apart may be missing. Equal entries are not always repeated.
# B1: IgG1-PD1 (antibody)
# heavy: QVQLVESGGGLVQPGTSLRLSCSVSGFSLYSYNMGWVRQAPGKGLEYIGIISGGTIGHYASWAKGRFTISRDTSKTTLYLQMNSLTTEDTATYFCARAFYDDYDYNVWGPGTLVTVSSASTKGPSVFPLAPSSKSTSGGTAALGCLVKDYFPEPVTVSWNSGALTSGVHTFPAVLQSSGLYSLSSVVTVPSSSLGTQTYICNVNHKPSNTKVDKRVEPKSCDKTHTCPPCPAPEFERGPSVFLFPPKPKDTLMISRTPEVTCVVVDVSHEDPEVKFNWYVDGVEVHNAKTKPREEQYNSTYRVVSVLTVLHQDWLNGKEYKCKVSNKALPAPIEKTISKAKGQPREPQVYTLPPSREEMTKNQVSLTCLVKGFYPSDIAVEWESNGQPENNYKTTPPVLDSDGSFFLYSKLTVDKSRWQQGNVFSCSVMHEALHNHYTQKSLSLSPG
# light: AIQLTQSPSSLSASVGGTVTITCQSSQSVYGNNQLSWYQQKPGQPPKLLIYQASKLETGVPSRFRGSGSGTQFTLTISSLQSEDFATYYCAGGYSSSSDTTFGGGTEVVVKRTVAAPSVFIFPPSDEQLKSGTASVVCLLNNFYPREAKVQWKVDNALQSGNSQESVTEQDSKDSTYSLSSTLTLSKADYEKHKVYACEVTHQGLSSPVTKSFNRGEC
# notes: also called IgG1-PDI; copies: 2 + 2
# B2: biotinylated recombinant human PD-L2 (ligand, UniProt Q9BQ51 20-219, looked up)
# chain: LFTVTVPKELYIIEHGSNVTLECNFDTGSHVNLGAITASLQKVENDTSPHRERATLLEEQLPLGKASFHIPQVQVRDEGQYQCIIIYGVAWDYKYLTLKVKASYRKINTHILKVPETDEVELTCQATGYPLAEVSWPNVSVPANTSHSRTPEGLYQVTSVLRLKPPPGRNFSCVFWNTHVRELTLASIDLQSQMEPRTHP
# modifications: biotinylated
# notes: Bought reagent; also called programmed cell death 1 ligand 2
# Columns and labels:
# [1] = biological target: T1, human PD-1, full-length, expressed on cells (human, UniProt Q15116 25-288); assay: competition flow cytometry: antibody titrated against 1 µg/mL biotinylated recombinant human PD-L2 on CHO-S cells transiently transfected with human PD-1; streptavidin-allophycocyanin; % of cells binding PD-L2
# T1 construct: whole, on cells; also called programmed cell death protein 1; membrane-expressed human PD-1
# T1 sequence (Q15116 25-288): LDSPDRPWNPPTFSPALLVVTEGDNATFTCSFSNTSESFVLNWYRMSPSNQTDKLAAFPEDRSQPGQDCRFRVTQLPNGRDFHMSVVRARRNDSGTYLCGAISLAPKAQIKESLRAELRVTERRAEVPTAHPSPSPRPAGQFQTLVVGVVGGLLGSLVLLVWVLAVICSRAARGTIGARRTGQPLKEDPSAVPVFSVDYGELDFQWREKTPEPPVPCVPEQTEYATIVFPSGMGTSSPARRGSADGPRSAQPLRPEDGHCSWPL
# [2] = biological target: T1, human PD-1, full-length, expressed on …; assay: cell-based or functional assay
# [3] = biological target: T1, human PD-1, full-length, expressed on …; assay: cell-based or functional assay; remark: listed apart in the source
# [4] = biological target: complement protein C1q (from human serum) (human, UniProt P02745 23-245; P02746 28-253; P02747 29-245); assay: flow cytometry: C1q from human serum on activated human CD8+ T cells pre-incubated with antibody, FITC anti-C1q
# Sequence of complement protein C1q (from human serum) (P02745 23-245, chain 1 of 3): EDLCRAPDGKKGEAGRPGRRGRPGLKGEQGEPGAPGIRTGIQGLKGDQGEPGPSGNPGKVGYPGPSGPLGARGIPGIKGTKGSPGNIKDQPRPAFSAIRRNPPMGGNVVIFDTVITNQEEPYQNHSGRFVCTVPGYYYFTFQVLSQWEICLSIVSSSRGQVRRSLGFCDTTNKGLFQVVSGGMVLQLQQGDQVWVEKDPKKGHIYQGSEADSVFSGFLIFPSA
# Sequence of complement protein C1q (from human serum) (P02746 28-253, chain 2 of 3): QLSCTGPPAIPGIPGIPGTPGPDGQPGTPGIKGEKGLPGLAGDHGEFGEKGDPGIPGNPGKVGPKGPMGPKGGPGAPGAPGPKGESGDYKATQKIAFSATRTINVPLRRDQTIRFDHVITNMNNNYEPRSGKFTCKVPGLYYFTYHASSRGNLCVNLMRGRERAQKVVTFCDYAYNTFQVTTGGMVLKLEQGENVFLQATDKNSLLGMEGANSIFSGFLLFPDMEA
# Sequence of complement protein C1q (from human serum) (P02747 29-245, chain 3 of 3): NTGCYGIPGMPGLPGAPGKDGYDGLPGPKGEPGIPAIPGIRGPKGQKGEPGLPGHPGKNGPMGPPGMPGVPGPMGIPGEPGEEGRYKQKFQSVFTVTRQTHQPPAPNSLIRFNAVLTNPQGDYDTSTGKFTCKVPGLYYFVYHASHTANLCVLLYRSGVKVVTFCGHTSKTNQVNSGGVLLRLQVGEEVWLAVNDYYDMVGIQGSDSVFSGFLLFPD
# [5] = biological target: T1, human PD-1, full-length, expressed on …; assay: flow cytometry: 1 µg/mL biotinylated recombinant human PD-L2 on CHO-S cells transiently transfected with human PD-1; streptavidin-allophycocyanin; % of cells binding PD-L2
Binder,IC50 (read off the curve) [1] [µg/mL],"EC50 of PD-1/PD-L1 checkpoint blockade (luminescence, cell-based PD-1/PD-L1 blockade reporter assay) [2]","Average EC50, CD8+ T-cell expansion index in the antigen-specific proliferation assay [3]",binding result [4],binding result [5]
B1,~0.9,0.165 µg/mL and 1.12 nM,0.0124 µg/mL and 0.0837 nM,no binding (tested: antibody up to 30 µg/mL; 20% human serum),
B2,,,,,binds
